In paper PMC3176149, “Application of Celluspots peptide arrays for the analysis of the binding specificity of epigenetic reading domains to modified histone tails” (BMC Biochemistry, 2011):

Target: FITC-coupled H3K9me3-S10ph peptide (amino acids 1-19) (UniProt P68431)
Test: fluorescence polarisation; fluorescence depolarization in solution, purified FITC-coupled H3 1-19 peptides, Varian Carry Eclipse spectrophotometer, as described [40]; fit to a binary binding equilibrium

- Kd: > 50 µM
Substance: MPP8 Chromo domain (M-phase phosphoprotein 8), GST fusion (from UniProt Q99549 58-112) (domain or fragment)
